# Source: the nanobody polyreactivity screen of Harvey et al. (2022)
# Assay: yeast display, Sf9 membrane polyspecificity reagent, FACS + sequencing; frameworks hold sequencing errors
# Procedure, shortened: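 Nanobodies from a synthetic yeast display library (Saccharomyces cerevisiae BJ5465), induced 36–48 hours with galactose, were stained 1 hour at 4 °C with 10% biotinylated, detergent-solubilized Sf9 membrane reagent, enriched on streptavidin microbeads, then FACS-sorted. Anti-HA (expression) and streptavidin (reagent binding) fluorescence set low and high (top ~1%) gates. Polyreactivity labels come from the gate of origin. Genes were colony-PCR amplified, MiSeq 2 × 250 sequenced and filtered by CDR length.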
row,Sequence,polyreactivity (PSR sort gate)
1,QVQLVESGGGLVQAGGSLRLSCAASGSTITHNAMGWYRQAPGKERELVATISSGGSTNYADSVKGRFTISRDNAKNTVYLQMNRLKPEDTAVYYCAKPRYRSHVVYGPASGDDYWGQGTQVTVSS,low polyreactivity
2,QVQLVESGGGLVQAGGSLRISCAASGSTFLYYAMGWYRQAPGKERELVAAISWDGGNTYYADSVKGRFTISRDNAKNTVYLQMNSLKPEDTAVYYFAAKHYGSYLYWFGSDYWGQGTQVTVSS,high polyreactivity
3,QVQLVESGGGLVQAGGSLRLSCAASGLTFKVNAMGWYRQAPGRGRELVAAISVSGGSTYYADSVKGRFTISRDNAKNTVYLQMNSLKPEDTAVYYCNADFYYRYYGAYDYWGQGTQVTVSS,high polyreactivity
4,QVQLVESGGGLVQAGGSLRLSCAASGFTFNRNAMGWYIQAPGKERELVAAISWSGGSTYYADSVKGRFTISRDNAKNTVYLQMNSLKPQDTEVYYCAKGYRRVYGPFYFWGQGTQVTVSS,low polyreactivity
5,QVQLGESGGGLVQAGGSLRLSCAASGFTSVRYAKGWYRQAPGKERELVAAITWNGGSTYYADSVKGRFTISRDNAKKSVYLQMNSLKPEDTAVYYCAKDTPYRYSVAYDYWGQGTQVTVSS,high polyreactivity
6,QVQLVESCGGLVQAGGSLRLSCAASGRTFGVYAMGWYRQAPGKERDLVAAINYSGGSTYYADSVKGRFTISRDNAKNTVYLQMNSLKPEDTAVYSCNKGPLISYAYRYYQPYDYWGQGTQVTVSS,low polyreactivity
7,QVQLVESGGGLVQAGGSLRLSCAASGRTFKFYAMGWYRQAPGKERELVAAITSDGSTYYADSVKGRFTISRDNAKNTVYLQMNSQKPEDTAVYYCAKRSNTGRGYDYWGQGTQVTVSS,high polyreactivity
8,QVQLVESGGGLVQAGGSLRLSCAASGSTFRYNDMGWYRQAPGKERELVADITSGGGTYYADSVKGRFTISRDNAKNTVYLQMNSLKPEDTAVYYCNADGFYDYPGWYGLVYWYDYWGQGTQVTVSS,high polyreactivity
9,QVQLVESGGGLVQAGGSLRLSCAASGSIFAYYAMGWYRQAPGKERELVAAISRRGGSTYYADSVKGRFTISRDNAKNTVYLQMNSLKPEDTAVYYCAADGGGTTSLEYGNDYWGQGTQVTVSS,high polyreactivity
10,QVQLVESGGGLVQAGGSLRLSCAASGRIFPTYTMGWYRQAPGKERELVAAITSGGTTYYADSVKGLFTISRDNAKNTVYLQMNSLKPEDTAVYSCAALRPRRGYYYWGQGTQVTVSS,high polyreactivity
11,QVQLVESGGGLVQAGGSLRLSCAASGSIFPKNAMGWSRQAPGKVREFVATITKRGGRTYYADSVKGRFTISRDNAKNTVYLQMNSQKPEEPAVYYCARDQGKLVVPYDYWGQGTQLTVSS,high polyreactivity
12,QVQLVESGGGLVQAGGSLRLSCAASGFTFGYYAMGWYRQAPGKERELVAAINWSGDSTYYADSVKGRFTISRDNAKNTVYLQMNSLKPEDTAVYYCNAVIEDLPYDYWGQGTQVTVSS,low polyreactivity
13,QVQLVESGGGLVQAGGSLRLSCAASGITFYTNAMGWYRQAPGKERELVAGISSSSGSTYYADSVKGRFTISRDNAKNTVYLQMNSLKPEDTAVYYCAADQDSTASDYKEYGYWGQGTQVTVSS,low polyreactivity
14,QVQLVESGGGLVQAGGSLRLSCAASGSTFTRNAMGWYREAPGTERELVAAISFSGGSTYYADSVKGRFTISRDNAKNTVYLQMNSLKPEDTAVYYCATKVEYRYYYWGQGTQVTVSS,high polyreactivity
15,QVQLVESGGGLVQAGGSLRLSCAASGSIFSVYAMGWYRQAPGKERELVAAISRSGGSTYYADSVKGRFTISRDNAKNTVYLQMNSLKPEDTAVYYCAARLAGRGSSSSRVVRTGGYWGQGTQVTVSS,high polyreactivity
16,QVQLEESGGGLVQAGGSLRLSCPASGRTFSVYAIGSYRPAPGKERELLAGITSGGSTNYADSVKGRFTISRDNAKNTVYLQMISLKPEDTAVYYCAAANVYAGFGFVSIGDYWGQGTQVTVSS,low polyreactivity
17,QVQLVESGGGLVQAGGSLRLSCAASGSIFGDNAMAWYRQAPGKERELVARISSGGNTYYADSVKGRFTISRDNAKNTVYLQMNSLKPEDTAVYYCAAAIKVRYKKFPYYYWGQGTQVTVSS,high polyreactivity
